Biological target: LSSmGFP-PRL-3.C104D (human) (UniProt O75365)
Experiment: FRET or BRET; in vitro FRET, competition: LSSmGFP-PRL3.C104D (250 nM) preincubated with competitor or test compound 30 min at room temperature, then HA-CBS-mScarlet3 (500 nM); 100 mM NaCl, 20 mM HEPES pH 7.5, 5% glycerol; normalised to DMSO control

Chain of LSSmGFP-PRL-3.C104D (human) (O75365 whole entry C104D): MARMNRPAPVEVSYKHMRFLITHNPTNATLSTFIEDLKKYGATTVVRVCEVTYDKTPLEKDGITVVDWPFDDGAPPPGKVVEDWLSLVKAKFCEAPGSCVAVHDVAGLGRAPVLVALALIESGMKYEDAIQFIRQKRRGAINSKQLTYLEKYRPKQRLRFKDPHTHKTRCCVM

## PSM-001 (cyclic peptide, PRL substrate mimic) (from UniProt Q8NE01 416-432)
  percent reduction of the FRET signal at 50 μM: 40%
